Biological target: human BTLA (wild-type) on cells (human) (UniProt Q7Z6A9)
Assay: cell-based or functional assay

human BTLA (wild-type) on cells (human), sequence (Q7Z6A9 31-289): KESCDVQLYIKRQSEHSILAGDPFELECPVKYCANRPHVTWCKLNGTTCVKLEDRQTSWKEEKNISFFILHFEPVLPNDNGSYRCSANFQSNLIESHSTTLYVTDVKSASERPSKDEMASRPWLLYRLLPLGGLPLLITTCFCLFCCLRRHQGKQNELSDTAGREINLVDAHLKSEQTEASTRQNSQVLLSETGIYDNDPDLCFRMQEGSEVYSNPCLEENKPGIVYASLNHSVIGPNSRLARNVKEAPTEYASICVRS

Substance: human CMV UL144-Fc (Fc fusion)
- ERK1/2 phosphorylation, control JTAg cells activated with co-immobilized anti-CD3 and Fc protein: 50 to 70 % reduction
- ZAP70/Syk phosphorylation, JTAg cells with ectopic BTLA: 15 to 25%
- phosphorylation of ERK, Akt and cellular phosphotyrosines, BJAB cells activated with co-immobilized anti-IgM and titrated Fc protein: 50 % reduction
